How the values were obtained:
[1] = molecular target: T1, single-chain NKG2A-CD94-mFc construct (human, UniProt Q13241 32-179, limits assumed); assay: SPR, Biacore T100; antigen amine-coupled to a CM5 chip, antibody injected at 0.157-2.5 nM
T1 construct: The order here follows the printed name only; also called recombinant NKG2A; not shown: mouse Fc (mFc)
Method: Heavy chain frameworks included “VH1” based on VH1_18/JH6; “VH5” based on VH5_a; “VH6” based on VH5_51; “VH7” based on VH1_f; and “VH8” based on VH1_46, all with a JH6 J-segment. The antigen-binding properties were analyzed on a Biacore T100 (Biacore AB, Uppsala, Sweden). The antigen was in the form of a single-chain NKG2A-CD94-mFc construct was covalently immobilized on the sensor CM5 chip (Biacore AB, Uppsala, Sweden) via amine groups using 1-ethyl-3-(3-dimethylaminopropyl) carbodiimide hydrochloride (EDC) and N-hydroxysuccinimide (NHS). The immobilization level was targeted at 300 RU. Z270 antibody variants were diluted to a concentration series (0.157, 0.313, 0.625, 1.25, 2.5 nM) in the running buffer HBS-EP (10 mM HEPES pH 7.4, 150 mM NaCl, 3 mM EDTA, 0.005% (v/v) Tween-20). All the samples were then injected over the immobilized antigen for 2 min at the flow rate of 40 ul/min. Subsequently, the running buffer was injected for 3 min at 40 ul/min for antibody dissociation analysis. After each run, the regeneration buffer (10 mM NaOH, 500 mM NaCl) was injected (30 seconds, 10 ul/min) to completely strip the remaining antibodies off the antigen. Data were evaluated with Biacore T100 evaluation software.

[2] = molecular target: T2, CD94/NKG2A on the cell surface (human, UniProt Q13241 1-179); assay: flow cytometry (MESF), titration in human whole blood, gated on NKG2A+ lymphocytes
T2 construct: whole, on cells; also called Ba/F3-CD94/NKG2A; NKG2A+ cells
Description: The affinity and total number of receptors may impact both pharmacokinetics (PK) and pharmacodynamics (PD) of the mAb in humans. […] Human whole blood was collected from each donor and processed immediately.

[3] = molecular target: T2, CD94/NKG2A on the cell surface; assay: cell-based or functional assay
[4] = molecular target: T2, CD94/NKG2A on the cell surface; assay: flow cytometry, titration on purified human NK cells; four-parameter fit, median of 5 donors
Method: Purified NK cells were prepared from frozen PBMC: Human NK purification with Stem Sep system, and cultured O/N in complete medium supplemented with 10 IU/ml recombinant IL-2. PBMC were prepared from collected blood. Blood was qualified for transfusion, donors were thus anonymous and supposedly healthy. PBMC were prepared, aliquoted and stored in nitrogen tanks prior to the study.
Calculations of Kd for receptor saturation and EC₅₀ for CD107 mobilization were performed in GraphPad Prism software using a non-linear regression fit with four parameters.

T2 sequence (chain, as listed by the source limits assumed, chain 1 of 2): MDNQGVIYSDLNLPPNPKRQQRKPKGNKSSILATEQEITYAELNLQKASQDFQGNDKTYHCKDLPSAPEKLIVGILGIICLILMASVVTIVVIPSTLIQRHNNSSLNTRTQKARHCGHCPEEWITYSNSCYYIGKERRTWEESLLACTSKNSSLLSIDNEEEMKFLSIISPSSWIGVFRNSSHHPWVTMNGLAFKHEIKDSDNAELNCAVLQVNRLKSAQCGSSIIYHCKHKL
T2 sequence (Q13241 whole entry, chain 2 of 2): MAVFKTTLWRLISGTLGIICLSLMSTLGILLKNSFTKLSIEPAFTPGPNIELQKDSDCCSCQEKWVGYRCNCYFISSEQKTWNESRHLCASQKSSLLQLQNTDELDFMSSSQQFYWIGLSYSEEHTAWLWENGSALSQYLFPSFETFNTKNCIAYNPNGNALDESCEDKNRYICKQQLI
T2 sequence (chain, as listed by the source limits assumed, chain 1 of 2): as the sequence (chain, as listed by the source limits assumed, chain 1 of 2) above
T2 sequence (Q13241 whole entry, chain 2 of 2, the tested form may be a part): as the sequence (Q13241 whole entry, chain 2 of 2) above
T1 sequence (Q13241 other isoform, or with tags, fused parts or gaps limits assumed): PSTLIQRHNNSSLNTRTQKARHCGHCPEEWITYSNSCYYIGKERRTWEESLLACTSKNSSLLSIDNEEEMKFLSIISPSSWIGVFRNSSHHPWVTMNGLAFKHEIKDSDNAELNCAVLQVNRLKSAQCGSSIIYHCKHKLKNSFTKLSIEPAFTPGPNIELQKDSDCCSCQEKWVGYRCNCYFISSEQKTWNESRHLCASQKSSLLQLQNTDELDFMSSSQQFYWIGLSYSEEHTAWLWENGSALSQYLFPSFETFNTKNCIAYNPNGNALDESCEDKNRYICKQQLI

B1: humZ270VL1/VH1 (antibody, human IgG4 S228P, kappa, V domains shown)
VH: QVQLVQSGAEVKKPGASVKVSCKASGYTFTSYWMNWVRQAPGQGLEWMGRIDPYDSETHYAQKLQGRVTMTTDTSTSTAYMELRSLRSDDTAVYYCARGGYDFDVGTLYWFFDVWGQGTTVTVSS
VL: DIQMTQSPSSLSASVGDRVTITCRASENIYSYLAWYQQKPGKAPKLLIYNAKTLAEGVPSRFSGSGSGTDFTLTISSLQPEDFATYYCQHHYGTPRTFGGGTKVEIKR
notes: also called humanized Z270 VH1; humZ270 VH1
B1 was tested. Which Kd [1] did it give?
The Kd was 0.0665 nM.

What about the koff [1] of the same binder?
Its koff is 0.000498 s⁻¹.

What about the kon [1] of the same binder?
Its kon is 7.49e+06 M⁻¹ s⁻¹.

And the EC50 [2]?
Its EC50 is roughly 4 ng/mL.

And the “KD for full receptor occupancy (the EC100)” value [2]?
Its value is roughly 100 ng/mL.

What about the Kd [2] of the same binder?
The Kd was roughly 4 ng/mL.

And the “EC50 concentration in the CD107 mobilization assay (purified NK cells against autologous SEB blasts)” value [3]?
Its value is roughly 400 ng/ml.

And the “EC50 for CD107 mobilization on K562-HLA-E transfectants” value [3]?
The value was 4.1 µg/mL.

What about the “median EC50 for CD107 mobilization (autologous SEB blasts)” value [3] of the same binder?
Its value is 0.4 µg/ml.

What about the Kd [4] of the same binder?
The Kd was 5 ng/mL.
